Conditions in all cases: both partners purified
Assay [1] deals with T1, human cyclophilin A (human, UniProt P62937 1-165).
T1 construct: also called CypA; peptidyl prolyl isomerase cyclophilin A; source: recombinant, highly pure; production and purification described previously [14]
Nature of the assay: SPR.

Assay [2] addresses T1, human cyclophilin A. Nature of the assay: ITC.
In assay [3] the target is T1, human cyclophilin A. In words: SPR. This is another data set of the same source.

Values joined by “and” are separate entries in the source; they are usually repeats but may differ in a detail not shown here. Equal values may be shown once.

T1 sequence (P62937 whole entry): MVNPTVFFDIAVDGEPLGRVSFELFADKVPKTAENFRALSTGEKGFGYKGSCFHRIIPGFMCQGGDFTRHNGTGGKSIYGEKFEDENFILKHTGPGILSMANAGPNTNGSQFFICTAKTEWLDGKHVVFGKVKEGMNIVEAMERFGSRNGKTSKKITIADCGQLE

B1: Vpr^75-90 (peptide)
peptide: GCRHSRIGVTRQRRAR
notes: HIV-1 Vpr residues 75-90; source: synthetic peptide
In the assay with human cyclophilin A [1], B1 came in with a Kd of 0.28 µM, a koff of 0.0063 s⁻¹ and a kon of 81000 M⁻¹ s⁻¹. In the assay with human cyclophilin A [2], the Ka was 9e+06 M⁻¹ and 1.7e+07 M⁻¹; the Kd was 0.12 µM and 0.06 µM; the dH is -72.8 kJ/mol and -69 kJ/mol; the “stoichiometry N” value was 0.98 and 1.
As for GCRHSAIGVTRQRRAR (source: synthetic peptide) [Vpr^75-90 (R80A)], in the assay with human cyclophilin A [1], the Kd was 7.5 µM, the koff came to 0.027 s⁻¹ and the kon stood at 3800 M⁻¹ s⁻¹.

B2: full-length synthetic HIV-1 Vpr (Vpr^1-96) (natural protein)
chain: MEQAPEDQGPQREPYNEWTLELLEELKSEAVRHFPRIWLHNLGQHIYETYGDTWAGVEAIIRILQQLLFIHFRIGCRHSRIGVTRQRRARNGASRS
In the case of B2, in the assay with human cyclophilin A [1], the Kd is 0.31 µM and 0.32 µM; the koff was 0.007 s⁻¹ and 0.00422 s⁻¹; the on-rate constant (kon) was 32000 M⁻¹ s⁻¹ and 16000 M⁻¹ s⁻¹.
For the molecule AVRHFPRIWLH [Vpr^30-40], in the assay with human cyclophilin A [3], the binding result was “binds”.

Values taken from PMC3269379, “The Host-Pathogen interaction of human cyclophilin A and HIV-1 Vpr requires specific N-terminal and novel C-terminal domains” (BMC Structural Biology, 2011).
